# Experimental data as given in PMC3248755.
# B1: human dimethylarginine dimethylaminohydrolase-1 (DDAH-1) (Homo sapiens) (protein)
# chain: MAGLGHPAAFGRATHAVVRALPESLGQHALRSAKGEEVDVARAERQHQLYVGVLGSKLGLQVVELPADESLPDCVFVEDVAVVCEETALITRPGAPSRRKEVDMMKEALEKLQLNIVEMKDENATLDGGDVLFTGREFFVGLSKRTNQRGAEILADTFKDYAVSTVPVADGLHLKSFCSMAGPNLIAIGSSESAQKALKIMQQMSDHRYDKLTVPDDIAANCIYLNIPNKGHVLLHRTPEEYPESAKVYEKLKDHMLIPVSMSELEKVDGLLTCCSVLINKKVDS
# Substrate: CSC(=N)NCCC[C@H](N)C(=O)O
# Experiment: steady-state kinetics
# Format: biochemical, Homo sapiens
protein,measurement,value
B1,Km,0.37 ± 0.03 µM
